One block for each molecule: values may come before it. Ends that are not written are not given here.
Experiments:
TCR^FLT3D/Y cells = settings: 28 candidate 9mers from the human proteome pulsed on K562 cells
Protocol: TCR-transduced T cells were co-cultured with cell lines or primary patient tumor cells at an effector:target cell ratio of 1:2 (100,000:200,000 cells/well) and reactivity was investigated by measuring CD137 upregulation or release of IFN-γ. […] Cells were placed in round or flat bottom 96-well plates and after 18-20 h of co-incubation centrifuged at 700 g for 2 min. Supernatants were harvested for measurement of IFN-γ by ELISA, while cells were washed and stained with anti-CD137. In some experiments, transduced T cells were labeled with 0.75 µM CTV to distinguish them from target cells. Reagents for IFN-γ ELISA were acquired from BD Pharmingen or R&D Systems: mouse anti-human IFN-γ capture antibody (NIB42), Biotin Mouse Anti-Human IFN-γ detection antibody (4S.B3), streptavidin-HRP, stabilized tetramethylbenzidine and hydrogen peroxide as substrate solutions, sulfuric acid as stop solution, and recombinant human IFN-γ protein as standard. The assay was performed according to manufacturer's instructions.

[1] = target: HLA-A2 presenting the cognate NY-ESO1 peptide (human) (UniProt P78358); assay: cell-based or functional assay
[2] = target: T1, FLT3 wild type peptide on HLA-A*02:01 (human); assay: multimer staining
T1 peptide: DIMSDSNYV

[3] = target: T2, FLT3 D835Y peptide on HLA-A*02:01 (human); assay: CD137 upregulation; transduced T cells of 4 donors against HLA-A2-transduced K562 pulsed with titrated peptide; full-length, on cells
T2 peptide: YIMSDSNYV

[4] = target: T3, MED1 peptide on HLA-A*02:01 (human); assay: cytokine release
T3 peptide: YITSDMFYV

[5] = target: T4, LZTR1 peptide on HLA-A*02:01 (human); assay: cytokine release
T4 peptide: AVISDAMYI

[6] = target: T5, PRADC1 peptide on HLA-A*02:01 (human); assay: cytokine release
T5 peptide: AVDNDSFYV

Molecule: AVDNDSFYV [peptide 15]
activation of TCR^FLT3D/Y cells (IFN-γ production) (TCR^FLT3D/Y cells): activated

Molecule: YITSDMFYV [peptide 12]
activation of TCR^FLT3D/Y cells (IFN-γ production) (TCR^FLT3D/Y cells): activated

T cell activation by peptide-pulsed target cells, EC50 [1]: 5.5 nM
Molecule: NY-ESO1-specific TCR 1G4

Molecule: AVISDAMYI [peptide 11]
activation of TCR^FLT3D/Y cells (IFN-γ production) (TCR^FLT3D/Y cells): activated

binding result [2]: no recognition | EC50 of peptide [3]: 0.081 nM | binding result [4]: recognises | binding result [5]: recognises | binding result [6]: recognises
B1: TCR^FLT3D/Y (TCR, V domains shown)
Valpha: ELKVEQNPLFLSMQEGKNYTIYCNYSTTSDRLYWYRQDPGKSLESLFVLLSNGAVKQEGRLMASLDTKARLSTLHITAAVHDLSATYFCAVVGGSQGNLIFGKGTKLSVKP
Vbeta: DVKVTQSSRYLVKRTGEKVFLECVQDMDHENMFWYRQDPGLGLRLIYFSYDVKMKEKGDIPEGYSVSREKKERFSLILESASTNQTSMYLCASSLSPGGGYGYTFGSGTRLTVV
